The target in test [1] is HLA-DR1 (HLA-DRA*0101, HLA-DRB1*0101) (human). Description: FP.
For test [2] the target is unchanged. Description: ELISA. On the technique in general: ELISA stands for enzyme-linked immunosorbent assay.
Test [3] has the same target. Description: ELISA. This is another data set of the same source.

The IC50 is the concentration at which inhibition is half-maximal. A high value points to lower potency. On to S344-358, for which, in test [1], the IC50 is over 10000 nM. Still for that read-out and setting: the same measure for nsp6 3801-3815: 1520 nM. In turn, S990-1004 had an IC50 in test [1] of over 10000 nM. On the same count and under the same terms, with N49-63 the figure was 493 nM. In turn, SARS-CoV-2 Spike peptide S866-880 returned an IC50 in test [2] of 1150 nM. Same read-out and setting: the same measure for SARS-CoV-2 Spike peptide S512-526: 662 nM.

“SARS-CoV-2 orf1ab (nsp3) peptide nsp3 1350-1364” came in with an IC50 in test [2] of 140 nM. For N328-342, the IC50 in test [1] was found to be 4010 nM. Substance S818-832 registered an IC50 in test [1] of over 10000 nM. On the same count and under the same terms, with E56-70 the figure was over 10000 nM. On the same count and under the same terms, with S1015-1029 the figure was 7390 nM; with N108-122, over 10000 nM; with nsp12 5019-5033, 2890 nM. For the substance SARS-CoV-2 Spike peptide S167-181, in test [2], the IC50 was over 10000 nM. ORF8 43-57: the IC50 in test [1] worked out at 430 nM. Same read-out and setting: with S235-249 the figure was 8130 nM. Regarding “SARS-CoV-2 Spike peptide S486-505 (Wuhan HU-1)”, the IC50 in test [2] came to 3050 nM; in test [3], 1950 nM. As for S339-353, the IC50 in test [1] is 5990 nM. In test [1], N224-238 had an IC50 of 2770 nM. Take SARS-CoV-2 Spike peptide S511-530: in test [2], the IC50 was 2620 nM. Consider N127-141, for which, in test [1], the IC50 was over 10000 nM. For the substance “SARS-CoV-2 orf1ab (nsp14) peptide nsp14 6420-6434”, the IC50 in test [2] is 541 nM.
